Experiment: label from the status in PepcDB records

Sequence | protein production
MLELFMQPEAWVIFATLFALEVVLGVDNVVFISVLCERLPSHQRKLARNLGIGLAVLARIGLVFSITWIMQLTQPLFSVANHAVTGRDMIMILGGAFLLAKSLKELWSWLTHNETDHSTHVRTGLAVVLLQIVAVDAVFSMDSVITAVGLTSEVPLMVAAIIASALVMVMTAEKINNLVTRYPGFKTLALLFLVLLGGLLMAEGFAIHINKGYVYFAMAFGLALELCHIQLKNKQRRTIQRIRPMHDVAT | failed
MKVITSLISSILLKFIHKDFHEIYARMSLLDRFLLLIVHGVDKMVPWHKLPVFLGLTYLEVRRHLHQQYNLLNVGQTPTGIRFDPANYPYRTADGKFNDPFNEGVGSQNSFFGRNCPPVDQKSKLRRPDPMVVATKLLGRKKFIDTGKQFNMIAASWIQFMIHDWIDHLEDTHQIELVAPKEVASKCPLSSFRFLKTKEVPTGFFEIKTGSQNIRTPWWDSSVIYGSNSKTLDRVRTYKDGKLKISEETGLLLHDEDGLAISGDIRNSWAGVSALQALFIKEHNAVCDALKDEDDDLEDEDLYRYARLVTSAVVAKIHTIDWTVQLLKTDTLLAGMRANWYGLLGKKFKDSFGHAGSSILGGVVGMKKPQNHGVPYSLTEDFTSVYRMHSLLPDQLHILDIDDVPGTNKSLPLIQEISMRDLIGRKGEETMSHIGFTKLMVSMGHQASGALELMNYPMWLRDIVPHDPNGQARPDHVDLAALEIYRDRERSVPRYNEFRRSMFMIPITKWEDLTEDEEAIEVLDDVYDGDVEELDLLVGLMAEKKIKGFAISETAFYIFLIMATRRLEADRFFTSDFNETIYTKKGLEWVNTTESLKDVIDRHYPDMTDKWMNSESAFSVWDSPPLTKNPIPLYLRIPS | failed
MVADKSKKSKIEEKGEEENLEQIDAELVLSIEKLQEIQDDLEKINEKASDEVLEVEQKYNVIRKPVYDKRNEVIQSIPGFWMTAFLSHPALGDLLTEEDQKIFKYLNSLEVEDAKDVKSGYSITFHFTSNPFFEDAKLTKTFTFLEEGTTKITATPIKWKEGKGLPNGVNHDDKKGNKRALPEESFFTWFTDAQHKEDAGDEIHDEVADIIKEDLWSNPLTYFNNDADEEDFDGDDDGDEEGEEDDDDEEEEDGEE | failed
EQYEIGVKPPKPANITATYTGGVLTVRVTENGKTLTLTSNVTMPTGTGPFPVVIGMNARTGQLPTNLFNGVIQIPFNHDQVAKYTQGDRDPSYPFFQLYPNLTSNGYYSAWAWGISRLIDGIELVQAQLNADTKRIAVTGCSYAGKMALFAGAFDERIALTIAQESGGGGVNAWRVSETIGNVEKISNTNYAWFMQSLKTNFQNGNAVKLPYDHHELMAMIAPRALLVLGNPPFEWLGDESGYVSSRAAQEVWTTLGVPERFGFSFRGGHDHCSLPSASNAEVTAFVDKFLR | failed
MVKESGMASLLLENPYYGYRKPKDQLRSSLKNVSDLFVMGGALILESAALLHWLERDGFWPLGMTGISMGGHMASLAVTNWPKPIPLIPCLSWTTASSVFTTGVLSRAVNWRELEKQYATHTVYEEEIISMLEYCGTDSFRMGQEFVKNAPGSFDGLDLTQELLQSGQQVALRSSYSGRPASDQDSSVLMGRRERDGLDQMLSAVSSSAPHLDMLHAKSIACGSGQRQSLQRESLCFMKGVMDECTHIANFSVPVDPSLIIIVQAKEDAYVPRTGVRSLQEIWPGCEVRYLNGGHISAYLFKQGLFRQAIYDAYDRFLHKYSSL | not failed
GRYEIRFSGAGGQGLILAGVIMAEAASIYDGKQAVQSQSYGPEARGGASKSEVIISDGPVDYPKATQCDALLALTQEACDKYSADLKEGGVLLVDSDLVTKLPPGNYQTTAFNIINTAKNDVGREIVANIVALGAMVALTGVVSKEAAEKAVLSRVPEAFVELNRKAFQMGFEKALAAKK | not failed
MSHAVVSWTLWSLALYLTLPYLSSAIEHSINNPLFVGPFYIISSGIGSLSLLALERHVKLLSTIGLALSGIGLLMIGVDANQLLTIIGFIFYNLYWLSVPIFYYLLSEEEGSLTKAWSISMVPAIIMPVIAGILIRWGEIIIFILGGLLQLTSSIILILVKHRIDEDHMVGYDVGIPKNVIFVVLPLSIVMPFLYLDVRESLIWVIYSSGQILGILMSWFLWKSKNAIMLSLIIFSGIIFSVFSPIGILFYGSSEALVALGIEKSRPSLMKHAIKVALTEALVWTVGYAVGSLLYYISGFLPFIYSSLVSLILAMIIGLFSSLTFNSVISKNPLKNTIPFKIVRYLTLREGIFPYFKIS | failed
MTLETAFMLPVQDAQHSFRRLLKAMSEPGVIVALHQLKRGWQPLNIATTSVLLTLADNDTPVWLSTPLNNDIVNQSLRFHTNAPLVSQPEQATFAVTDEAISSEQLNALSTGTAVAPEAGATLILQVASLSGGRMLRLTGAGIAEERMIAPQLPECILHELTERPHPFPLGIDLILTCGERLLAIPRTTHVEVC | not failed
LFSDASGEQRLQKIIGQIKKDGSGKDYDCIIGLSGGVDSSYLAVKVKDLGLRPLVVHVDAGWNSELAVSNIEKIVKYCGFDLHTHVINWEEIRDLQLAYMKAAVANQDVPQDHAFFASMYHFAVKNNIKYILSGGNLATEAVFPDTWHG | failed
MQRLQHYYQCFLAQLKNFDGIPALLLRLYLAPVFIMAGFSKTQMLNEEVTGFSAIMADPNIIAWFGNSDWGLGLPFPALLANLVILVEFFGGWFLLFGALTRLISIPLMFTMIVAATSVHADNGWFAITPTNSDISPAKVAVWLGIDSAQASLDNSEQTATRLEKMRELIEENGNTDWLYENGNIVVLNNGIEFSTTYFIMLLSLFFIGAGRYTSVDHFVAKRFLIEEKRFS | failed
NIYDSANELSRGLRGLPEYKAVKAAKDAIAADAEASKIFTDYLAFQEEIQKLAQTGQMPDASFQAKMEGFGKQIQGNSLLSEFFTKQQQLAIYLSDIEKIVFEPVSEL | failed
AADERVKEMWAYSPSMDRNVPLVVITADESAGPRPVIYLLNGGDGGEGAANWVMQTDVLDFYLEKNVNVVIPMEGKFSYYTDWVEENASLGGKQMWETFLVKELPGPLEEKLNTDGQRAIAGMSMSATTSLLFPQHFPGFYDAAASFSGCAATSSLLPWEYLKLTLDRGNATPEQMWGPRGGEYNIYNDALINSDKLRGTELYVSNASGLAGEWESVDSPRFEGLNQQVQSIAMAETVVTGGIIEAATNKCTHDLKAKLDSAGIPADWNLRPTGTHSWGWWQDDLRGSWTTFARAFEL | failed
SSGNHIFKGRAAGIAVNENGKGLITENVIRENQWGGVDIRRGGIPVLRSNLICFGYSDGVVVGDEGKGLIEGNTIYANKGCGVWMMSSSLPHVTSNHVSYNGLYGVAVFSQKDGSSELPRGHRAQENFSEDGDAILWETELEKEDDPLRRPITIALVESNSINHNGASGLYVQSSEALHVITNVIHANGDRGITVAQSSQPTRVANNSISCNRQSGVKVEAQCKVELRGNGIYDNRGHGIITKGDSTIVIENDIIGNRGSGLQLLPRSDTKVIKNRIHSFRAYGIAVRGRAKALVQENIIFQGKTSKTIFQQISNNRECIMQNNKFLVFKKKSDTWR | not failed
MSVTSRYRDAWEGFWNEASGDRGAVFWDAEPTLTAGRHLAHFEPHLTDAALPLIDLGCGNGTQTRYFAERFPHVVGADLSAAALAHARHADPGGLAAYRQLDAADKAEAQALHAELGDANVYVRGVLHQCEPDDRQPLADALAALLGERGRAFLVEPSQAAKTVLMGLAQGPAGPPAKLAPVLRHGLTPGAVPDEAVPEYLRAAGLTVLASGELPLVTTEYTADGTRIELPSAWVVAGTA | failed
MEFNLRCSESMPDFSRVGMMDEDIPNVRGRGPSQPRGFLRSQIRAPCALMKGLSDIDQEITMAFIKALAVQHQKRSLERRKIRKKINRILRRVIAISRELHTLNSHPGDWIELGISEFDRIPDCMMPILELAGQGVQLFYKSRRVS | failed
MDVLTDQDVQKFRDEGYLVLEGLLSPEECDALRRRMSEIIESMDVPEHCRTQFSTDHDEQLKTQGNADYFITSGDKIRFFFEKGVFDDKGEFVVPKEQSLNKIGHALHAYEPLFKRVTHSPKVQNICKKLELINPVILQSMYIFKQPGIGGEVTPHQDATFLYTQPLGRVMGVWVALEDAMQENGCLWFIPGSHNDGITRRMVRTPKGTFPLTDFIGREKDYDDKLFVPAPVKKGGAVLIHGEVVHRSAANTSDASRHVYTFHIMESENTVWSPENWLQATEELPFPSLYT | failed
MSKDSNKIIEQSREIGISIIMPLYNVEEVILETLESIHEQTFDSYEVLLIDDGSTDKTIEIVTEYIKDKPRFKLYTQPNGGPASARNHGLRLAIGMYICFVDSDDILPNYSLQLMYDGAISTGAKLITGATKRFNSEGEWFIPMHIQYNIAKPGMKTLLKNPELFYSIGPCAKLYHHSLIDGVFFPENIRYGEDQPFVLHALLQAKDIYTVEKVVYYYRLRDGESQSLTQSVDKDPIRILKSVFQIFDYGEEELKKNNTDYEVALKYYQRVSSVELWGALRAAIESKKSENQKIAFTMTLDWLKTKSDDFLNIIPSFRYFLLFSSIERVRYITKDNKENYRNLIGYLWSRQGEEAKIAFRKTYPIPMKAALQIIENNNWRDARKISFKFIVRRKFKAPILIRKISRGIIFRIATLMPRKKNQVILATERSTTLEGNLLAIYDYMFYNNMPQKVYVFLRKNRNWFEMFQLYYTLGRTKTIVLDDYYNKIYGLKFNKNTHVVQSWHATGAFKKFGFSALEGTDANTEEFETRAHSPYTDVLVSSEGIIPEYMEAFRKQANQIKPIGVPRTDVFFDDEYVNYTKEKYMKMYPQLRDKKILLYAPTFRGGPNERFNYSVVLDIAALKKELGDTHILILKFHPVIKNVSFNVEEDDPFILNLTLNNDINDLMLFSDALITDYSSVIFEFSLMNKPIYFFAYDIDDYLDERGFYFDYKATIPGEVFRDTPSLIEAVKSGLYNYDELEIFKKKFVGSLDGNSTKRFVETYIGKANEKVKDILEHHHHHH | not failed
EYISVKSQNELLEASTPHPGTRNHIPQLDVDANELALVYRARGMSEADAEQKAAEAFVNLRNAEDQAIIDEPRNDEPING | failed
MATAENTELIDRFEEFYRNYYRNEIGELAQKYPNDQKSLYIDWDDLYRFDPDLADDYRTKPEQIQEYAEEALRLYDLPVDVSLGQAHVRVRNLPESEDIRDLRHEHHGNLVAVRGIIRKATDVRPKVIEAAFECQRCGTLTRIPQTAGDFQEPHDCQGCERQGPFRLNTDQSQFIDAQKLRVQESPEGLRGGETPQSIDINIEDDITGHVTAGDHVRVTGILKLDQRGNDNEKSPMFDIYMEGVSVEIEDEQFEDMEITDADKTEIVELSSEPDIYDKMVGAIAPSIYGYEKEKLAMMLQLFSGVTKELPDGSRIRGDLHMLLIGDPGTGKCVHGDTRVTLADGHERPIREVVESNLDDPKPVDDGVWDTVDFDVPSLQSDGTVATQNATKVWKRKAPETLYRIRTATGRELDVTPSHPLFVQSDGRFQARKAEELESGTHVAVPRKVSTNACNELDVTFRQSQAHNRIDLDLPPQWTPELARLIGYIVAEGYVEQRPDNTGYVSITNNDREVLDDAKSVLETLNLNVTERSSHEGKTARELLCSAGEFVSFLASLDETLLQSSAERRVPQDIMRASDNVVTGFIRGYIEGEGHVSTSQREITVASMSKPLLEDVRTLLVTQGITAQLQPRNNGSYRLRISGQSFHDYAEQIGFITARKTEACRQFEGTHGNTNLDIVPNLGPELRRIREALGLTQSECGLPRSTYQHYERGRRNPSRDSLESVLDAFETRLAEMNNDTPISDTARSDGGGTGSLRQDLNGLAALVEGDIAWDRIESIEPIEHDEKWVYDLEIEGTHNYLTNGVVSHNSQMLSYIENIAPRSVYTSGKGSSSAGLTAAAVRDDFGDGQQWTLEAGALVLADQGIAAIDELDKMSPEDRSAMHEALEQQRISVSKAGINATLKSRCSLLGAANPKYGRFDQYEPIGEQIDLEPALISRFDLIFTVTDKPDEEKDRNLAEHIIQTNYAGELHTHRTENPTSNFSEEEVGTVTEEVAPTIEPDLLRKYVAYAKRNCFPTMTEEAKSRIEDFYVDLRLKGQDEDAPVPVTARKLEALVRLAEASARIRLSDTVDEADADRAVDIAHYCLKEIGVDPETGEFDADVVETGQSKTQRDRIQNIKGIISDIEDEYDEGAPADVVIERAEEVGIDESKAEHEIDKLKQKGEVYEPRTDHLRTT | failed

— a protein production outcome set (Wang et al. 2014)
